Here are results for five molecules from patent US20140274782A1, “AFFINITY REAGENTS AND METHODS FOR DETECTION, PURIFICATION, AND PROTEOMIC ANALYSIS OF METHYLATED PROTEINS” (The Board of Trustees of the Leland Stanford Junior …, priority 2013, published 2014).

The subject of one test is 3×MBT domain of L3MBTL1. The test can be described thus: Triple SILAC pull-down, 3xMBT/3xMBTD355N ratio (cytoplasmic, nuclear and chromatin fractions of 293T cells).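 For all read-outs here: proteins quantified with MaxQuant, requiring at least two unique peptides and quantification in both label directions, normalized to the mean of proteins from a digested loading control.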 The format is binding, human. Conditions: SILAC ratio, pull-down 3xMBT vs 3xMBTD355N; for 3xMBT/D355N UNC Heavy: experiment with UNC0638 in heavy SILAC media; for 3xMBT/D355N UNC Light: experiment with UNC0638 in light SILAC media.

The target in another test is T1, G9a and GLP (Homo sapiens, UniProt Q96KQ7+Q9H9B1).
T1 sequence (Q96KQ7 2-1210 limits assumed): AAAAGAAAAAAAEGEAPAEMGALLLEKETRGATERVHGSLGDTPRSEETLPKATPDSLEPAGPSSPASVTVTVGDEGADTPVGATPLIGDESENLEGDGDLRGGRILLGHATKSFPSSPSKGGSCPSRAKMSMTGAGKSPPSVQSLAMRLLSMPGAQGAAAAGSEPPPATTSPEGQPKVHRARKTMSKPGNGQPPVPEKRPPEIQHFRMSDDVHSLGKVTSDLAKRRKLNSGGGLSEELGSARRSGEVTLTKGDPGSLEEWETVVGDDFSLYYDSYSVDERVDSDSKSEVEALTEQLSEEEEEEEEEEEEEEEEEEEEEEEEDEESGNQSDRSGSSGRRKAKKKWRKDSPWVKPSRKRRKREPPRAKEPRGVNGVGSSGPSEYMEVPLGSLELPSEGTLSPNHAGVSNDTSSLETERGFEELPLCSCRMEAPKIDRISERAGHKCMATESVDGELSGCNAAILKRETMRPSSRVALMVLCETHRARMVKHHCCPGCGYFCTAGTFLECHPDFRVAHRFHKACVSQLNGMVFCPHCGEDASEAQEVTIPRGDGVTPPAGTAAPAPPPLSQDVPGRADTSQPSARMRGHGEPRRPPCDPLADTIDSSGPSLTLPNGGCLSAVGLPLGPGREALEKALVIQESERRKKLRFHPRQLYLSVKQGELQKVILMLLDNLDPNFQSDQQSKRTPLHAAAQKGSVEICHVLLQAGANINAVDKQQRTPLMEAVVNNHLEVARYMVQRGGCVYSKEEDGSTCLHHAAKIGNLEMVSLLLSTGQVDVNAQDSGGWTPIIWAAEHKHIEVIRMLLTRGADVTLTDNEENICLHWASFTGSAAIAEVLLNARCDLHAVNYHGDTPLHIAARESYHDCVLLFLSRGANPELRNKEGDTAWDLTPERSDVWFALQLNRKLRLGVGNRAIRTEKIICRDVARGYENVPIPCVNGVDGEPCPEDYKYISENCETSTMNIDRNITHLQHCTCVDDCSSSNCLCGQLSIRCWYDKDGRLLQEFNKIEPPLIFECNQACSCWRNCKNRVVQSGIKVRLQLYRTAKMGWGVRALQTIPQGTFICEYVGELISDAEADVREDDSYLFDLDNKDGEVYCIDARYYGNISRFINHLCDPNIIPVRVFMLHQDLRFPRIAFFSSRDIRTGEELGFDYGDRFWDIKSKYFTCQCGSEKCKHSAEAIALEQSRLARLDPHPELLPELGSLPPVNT
T1 sequence (Q9H9B1 2-1298 limits assumed): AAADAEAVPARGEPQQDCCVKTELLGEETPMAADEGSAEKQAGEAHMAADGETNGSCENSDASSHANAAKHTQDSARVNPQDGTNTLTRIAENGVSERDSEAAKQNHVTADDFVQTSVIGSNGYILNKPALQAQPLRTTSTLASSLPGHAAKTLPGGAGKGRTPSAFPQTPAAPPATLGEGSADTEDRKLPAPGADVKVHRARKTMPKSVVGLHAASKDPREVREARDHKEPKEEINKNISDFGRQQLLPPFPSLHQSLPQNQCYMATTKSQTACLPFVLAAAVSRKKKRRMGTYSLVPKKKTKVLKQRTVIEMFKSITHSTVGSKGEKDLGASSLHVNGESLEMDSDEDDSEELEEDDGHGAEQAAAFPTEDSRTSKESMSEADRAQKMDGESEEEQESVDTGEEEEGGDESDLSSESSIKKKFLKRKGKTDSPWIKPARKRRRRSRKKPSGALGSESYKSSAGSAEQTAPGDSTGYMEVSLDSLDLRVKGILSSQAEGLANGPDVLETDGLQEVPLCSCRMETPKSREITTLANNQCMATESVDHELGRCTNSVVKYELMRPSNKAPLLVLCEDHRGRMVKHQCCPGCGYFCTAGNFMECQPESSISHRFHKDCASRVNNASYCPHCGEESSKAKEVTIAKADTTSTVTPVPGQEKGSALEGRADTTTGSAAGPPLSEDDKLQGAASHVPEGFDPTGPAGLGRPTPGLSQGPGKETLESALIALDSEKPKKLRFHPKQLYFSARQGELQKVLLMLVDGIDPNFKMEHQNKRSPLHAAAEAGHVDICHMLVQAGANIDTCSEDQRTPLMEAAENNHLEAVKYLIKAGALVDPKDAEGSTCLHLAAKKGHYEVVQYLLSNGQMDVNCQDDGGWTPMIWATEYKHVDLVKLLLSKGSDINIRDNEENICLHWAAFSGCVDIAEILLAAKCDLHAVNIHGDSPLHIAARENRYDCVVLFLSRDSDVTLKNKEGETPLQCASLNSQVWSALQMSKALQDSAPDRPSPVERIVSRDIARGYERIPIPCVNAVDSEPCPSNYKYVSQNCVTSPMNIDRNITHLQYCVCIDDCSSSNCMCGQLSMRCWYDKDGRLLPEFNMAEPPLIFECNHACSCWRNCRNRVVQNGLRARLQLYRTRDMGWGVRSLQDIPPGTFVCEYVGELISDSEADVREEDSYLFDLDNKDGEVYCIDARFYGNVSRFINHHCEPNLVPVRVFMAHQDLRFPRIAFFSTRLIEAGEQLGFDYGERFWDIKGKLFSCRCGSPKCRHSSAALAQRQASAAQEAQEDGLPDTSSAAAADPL
Description: Triple SILAC pull-down after UNC0638 treatment of 293T cells, DMSO/UNC0638 ratio of protein captured by 3×MBT.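 For all read-outs here: mass spectrometry (Q-Exactive) SILAC quantitation, DMSO/UNC0638 ratio computed after subtracting 3×MBTD355N mutant pull-down background, only proteins with at least twofold 3×MBT over mutant signal considered.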 Type of test: cell-based. More on the design: cells were treated for 24 hours with UNC0638 at 2.5 μM or DMSO vehicle control; endogenous in cells; host or cells: HEK 293T. Conditions: for Relative to UNC0638 UNC Heavy / Relative to UNC0638 UNC Light: SILAC ratio DMSO/UNC0638 of protein pulled down with 3xMBT; for Relative to UNC0638 UNC Heavy: UNC0638 in heavy SILAC media; for Relative to UNC0638 UNC Light: UNC0638 in light SILAC media; for Relative to UNC0638 Average: average of UNC Light and UNC Heavy experiments.

B1: LSM12 (protein, UniProt Q3MHD2 2-195, looked up)
Protein LSM12: AAPPGEYFSVGSQVSCRTCQEQRLQGEVVAFDYQSKMLALKCPSSSGKPNHADILLINLQYVSEVEIINDRTETPPPLASLNVSKLASKARTEKEEKLSQAYAISAGVSLEGQQLFQTIHKTIKDCKWQEKNIVVMEEVVITPPYQVENCKGKEGSALSHVRKIVEKHFRDVESQKILQRSQAQQPQKEAALSS
Regarding B1, in the test on 3×MBT domain of L3MBTL1, the “3xMBT/D355N UNC Heavy” value is recorded as 2.07 log base 2 and the “3xMBT/D355N UNC Light” value was 3.81 log base 2. Besides, in the test with G9a and GLP, the “Relative to UNC0638 UNC Heavy” value is listed as 0.03 log base 2, the “Relative to UNC0638 UNC Light” value came to 0.34 log base 2 and the “Relative to UNC0638 Average” value was 0.18 log base 2.

B2: SRP14 (protein, UniProt P37108 2-136, looked up)
Signal recognition particle …: VLLESEQFLTELTRLFQKCRTSGSVYITLKKYDGRTKPIPKKGTVEGFEPADNKCLLRATDGKKKISTVVSSKEVNKFQMAYSNLLRANMDGLKKRDKKNKTKKTKAAAAAAAAAPAAAATAPTTAATTAATAAQ
Turning to B2, in the test on 3×MBT domain of L3MBTL1, the “3xMBT/D355N UNC Heavy” value turned out to be 2.23 log base 2 and the “3xMBT/D355N UNC Light” value amounted to 2.96 log base 2. In addition, in the test with G9a and GLP, the “Relative to UNC0638 UNC Heavy” value was found to be 0.30 log base 2, the “Relative to UNC0638 UNC Light” value came out at 0.07 log base 2 and the “Relative to UNC0638 Average” value is reported as 0.19 log base 2.

B3: SF3B3 (protein, UniProt Q15393 1-1217, looked up)
Splicing factor 3B subunit 3: MFLYNLTLQRATGISFAIHGNFSGTKQQEIVVSRGKILELLRPDPNTGKVHTLLTVEVFGVIRSLMAFRLTGGTKDYIVVGSDSGRIVILEYQPSKNMFEKIHQETFGKSGCRRIVPGQFLAVDPKGRAVMISAIEKQKLVYILNRDAAARLTISSPLEAHKANTLVYHVVGVDVGFENPMFACLEMDYEEADNDPTGEAAANTQQTLTFYELDLGLNHVVRKYSEPLEEHGNFLITVPGGSDGPSGVLICSENYITYKNFGDQPDIRCPIPRRRNDLDDPERGMIFVCSATHKTKSMFFFLAQTEQGDIFKITLETDEDMVTEIRLKYFDTVPVAAAMCVLKTGFLFVASEFGNHYLYQIAHLGDDDEEPEFSSAMPLEEGDTFFFQPRPLKNLVLVDELDSLSPILFCQIADLANEDTPQLYVACGRGPRSSLRVLRHGLEVSEMAVSELPGNPNAVWTVRRHIEDEFDAYIIVSFVNATLVLSIGETVEEVTDSGFLGTTPTLSCSLLGDDALVQVYPDGIRHIRADKRVNEWKTPGKKTIVKCAVNQRQVVIALTGGELVYFEMDPSGQLNEYTERKEMSADVVCMSLANVPPGEQRSRFLAVGLVDNTVRIISLDPSDCLQPLSMQALPAQPESLCIVEMGGTEKQDELGERGSIGFLYLNIGLQNGVLLRTVLDPVTGDLSDTRTRYLGSRPVKLFRVRMQGQEAVLAMSSRSWLSYSYQSRFHLTPLSYETLEFASGFASEQCPEGIVAISTNTLRILALEKLGAVFNQVAFPLQYTPRKFVIHPESNNLIIIETDHNAYTEATKAQRKQQMAEEMVEAAGEDERELAAEMAAAFLNENLPESIFGAPKAGNGQWASVIRVMNPIQGNTLDLVQLEQNEAAFSVAVCRFSNTGEDWYVLVGVAKDLILNPRSVAGGFVYTYKLVNNGEKLEFLHKTPVEEVPAAIAPFQGRVLIGVGKLLRVYDLGKKKLLRKCENKHIANYISGIQTIGHRVIVSDVQESFIWVRYKRNENQLIIFADDTYPRWVTTASLLDYDTVAGADKFGNICVVRLPPNTNDEVDEDPTGNKALWDRGLLNGASQKAEVIMNYHVGETVLSLQKTTLIPGGSESLVYTTLSGGIGILVPFTSHEDHDFFQHVEMHLRSEHPPLCGRDHLSFRSYYFPVKNVIDGDLCEQFNSMEPNKQKNVSEELDRTPPEVSKKLEDIRTRYAF
For B3, in the test on 3×MBT domain of L3MBTL1, the “3xMBT/D355N UNC Heavy” value stood at 2.48 log base 2 and the “3xMBT/D355N UNC Light” value is 2.08 log base 2. In the test with G9a and GLP, the “Relative to UNC0638 UNC Heavy” value is on record as 0.06 log base 2, the “Relative to UNC0638 UNC Light” value is on record as 0.31 log base 2 and the “Relative to UNC0638 Average” value turned out to be 0.18 log base 2.

B4: PRDX2 (protein, UniProt P32119 2-198, looked up)
Peroxiredoxin-2: ASGNARIGKPAPDFKATAVVDGAFKEVKLSDYKGKYVVLFFYPLDFTFVCPTEIIAFSNRAEDFRKLGCEVLGVSVDSQFTHLAWINTPRKEGGLGPLNIPLLADVTRRLSEDYGVLKTDEGIAYRGLFIIDGKGVLRQITVNDLPVGRSVDEALRLVQAFQYTDEHGEVCPAGWKPGSDTIKPNVDDSKEYFSKHN
With B4, in the test with 3×MBT domain of L3MBTL1, the “3xMBT/D355N UNC Heavy” value worked out at 2.19 log base 2 and the “3xMBT/D355N UNC Light” value is 4.01 log base 2. Moreover, in the test with G9a and GLP, the “Relative to UNC0638 UNC Heavy” value worked out at 0.43 log base 2, the “Relative to UNC0638 UNC Light” value is 1.96 log base 2 and the “Relative to UNC0638 Average” value came out at 1.19 log base 2. In the test with G9a and GLP (reduced association with 3xMBT after UNC0638 treatment), the “Candidate G9a/GLP target” value was “✓”.

B5: CALD1 (protein, UniProt Q05682 1-793, looked up)
Caldesmon: MDDFERRRELRRQKREEMRLEAERIAYQRNDDDEEEAARERRRRARQERLRQKQEEESLGQVTDQVEVNAQNSVPDEEAKTTTTNTQVEGDDEAAFLERLARREERRQKRLQEALERQKEFDPTITDASLSLPSRRMQNDTAENETTEKEEKSESRQERYEIEETETVTKSYQKNDWRDAEENKKEDKEKEEEEEEKPKRGSIGENQVEVMVEEKTTESQEETVVMSLKNGQISSEEPKQEEEREQGSDEISHHEKMEEEDKERAEAERARLEAEERERIKAEQDKKIADERARIEAEEKAAAQERERREAEERERMREEEKRAAEERQRIKEEEKRAAEERQRIKEEEKRAAEERQRIKEEEKRAAEERQRARAEEEEKAKVEEQKRNKQLEEKKHAMQETKIKGEKVEQKIEGKWVNEKKAQEDKLQTAVLKKQGEEKGTKVQAKREKLQEDKPTFKKEEIKDEKIKKDKEPKEEVKSFMDRKKGFTEVKSQNGEFMTHKLKHTENTFSRPGGRASVDTKEAEGAPQVEAGKRLEELRRRRGETESEEFEKLKQKQQEAALELEELKKKREERRKVLEEEEQRRKQEEADRKLREEEEKRRLKEEIERRRAEAAEKRQKMPEDGLSDDKKPFKCFTPKGSSLKIEERAEFLNKSVQKSSGVKSTHQAAIVSKIDSRLEQYTSAIEGTKSAKPTKPAASDLPVPAEGVRNIKSMWEKGNVFSSPTAAGTPNKETAGLKVGVSSRINEWLTKTPDGNKSPAPKPSDLRPGDVSSKRNLWEKQSVDKVTSPTKV
Consider B5, for which, in the test on 3×MBT domain of L3MBTL1, the “3xMBT/D355N UNC Heavy” value is 3.53 log base 2 and the “3xMBT/D355N UNC Light” value is given as 3.50 log base 2. Also, in the test with G9a and GLP, the “Relative to UNC0638 UNC Heavy” value came out at 0.29 log base 2, the “Relative to UNC0638 UNC Light” value is on record as 0.09 log base 2 and the “Relative to UNC0638 Average” value is 0.19 log base 2.
